Reference: publication PMC12392933, “The SCARECROW‐LIKE transcription factor from Populus davidiana × P. bolleana simultaneously improved drought tolerance and plant growth through acetylation‐dependent mechanisms”

B1: ABRE probe (3x CACGTG) (dsDNA)
DNA 1: CACGTGCACGTGCACGTG
DNA 2: CACGTGCACGTGCACGTG
B2: PCF probe (3x TGGGCC) (dsDNA)
DNA 1: TGGGCCTGGGCCTGGGCC
DNA 2: GGCCCAGGCCCAGGCCCA
B3: NFY probe (3x CCAAT) (dsDNA)
DNA 1: CCAATCCAATCCAATC
DNA 2: GATTGGATTGGATTGG
B4: NFY mutant competitor (CCAAT to TTTTT) (dsDNA)
DNA 1: TTTTTTTTTTTTTTTC
DNA 2: GAAAAAAAAAAAAAAA

Experiments:
PdbSCL1 [1] = target: T1, PdbSCL1 (Populus davidiana x P. bolleana …, UniProt A0AAJ6V7V0 1-473); experiment: EMSA; Chemiluminescent EMSA kit (Beyotime), PAGE; buffer, salt, pH and temperature not stated; settings: protein: recombinant; tags: MBP (pMALc5X); label: 3' biotin; blunt
T1 sequence: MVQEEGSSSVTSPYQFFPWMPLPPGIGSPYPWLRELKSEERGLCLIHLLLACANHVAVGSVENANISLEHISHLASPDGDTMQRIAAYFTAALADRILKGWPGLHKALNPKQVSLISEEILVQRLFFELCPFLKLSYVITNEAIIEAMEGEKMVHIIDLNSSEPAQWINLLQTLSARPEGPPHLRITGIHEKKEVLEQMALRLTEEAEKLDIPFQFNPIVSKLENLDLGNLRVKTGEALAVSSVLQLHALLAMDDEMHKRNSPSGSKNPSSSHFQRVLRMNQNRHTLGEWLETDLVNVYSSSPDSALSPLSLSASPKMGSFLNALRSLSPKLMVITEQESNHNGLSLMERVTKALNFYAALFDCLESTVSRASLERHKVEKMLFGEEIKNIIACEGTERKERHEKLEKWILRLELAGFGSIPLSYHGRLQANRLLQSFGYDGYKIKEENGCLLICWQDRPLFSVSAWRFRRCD

PdbSCL1 [2] = target: T1, PdbSCL1; experiment: competition; EMSA, unlabelled mutant competitor; Chemiluminescent EMSA kit (Beyotime), PAGE; buffer, salt, pH and temperature not stated; settings: protein: recombinant; tags: MBP (pMALc5X); label: unlabelled; blunt

Row | Binder | binding result (PdbSCL1 [1]) | binding result (PdbSCL1 [2])
1 | B1 | binds | –
2 | B2 | binds | –
3 | B3 | binds | –
4 | B4 | – | no binding
